Literature values in publication PMC12203939.

How the values were obtained:
[1] = biological target: PKA regulatory subunit RII (Homo sapiens) (UniProt P13861)
[2] = biological target: PKA regulatory subunit RI (Homo sapiens) (UniProt P10644)
Chain of PKA regulatory subunit RI (Homo sapiens) (P10644 whole entry): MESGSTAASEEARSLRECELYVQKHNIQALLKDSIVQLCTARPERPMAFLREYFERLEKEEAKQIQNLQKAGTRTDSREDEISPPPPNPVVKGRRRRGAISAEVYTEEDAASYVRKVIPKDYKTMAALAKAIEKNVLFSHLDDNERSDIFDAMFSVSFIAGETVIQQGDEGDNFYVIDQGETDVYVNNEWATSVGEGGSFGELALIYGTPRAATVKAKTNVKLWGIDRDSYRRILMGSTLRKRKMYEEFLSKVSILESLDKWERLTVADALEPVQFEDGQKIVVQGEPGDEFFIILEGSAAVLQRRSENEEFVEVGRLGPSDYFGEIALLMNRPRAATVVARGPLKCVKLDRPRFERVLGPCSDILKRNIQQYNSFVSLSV

Chain of OPA1 (O60313 195-960): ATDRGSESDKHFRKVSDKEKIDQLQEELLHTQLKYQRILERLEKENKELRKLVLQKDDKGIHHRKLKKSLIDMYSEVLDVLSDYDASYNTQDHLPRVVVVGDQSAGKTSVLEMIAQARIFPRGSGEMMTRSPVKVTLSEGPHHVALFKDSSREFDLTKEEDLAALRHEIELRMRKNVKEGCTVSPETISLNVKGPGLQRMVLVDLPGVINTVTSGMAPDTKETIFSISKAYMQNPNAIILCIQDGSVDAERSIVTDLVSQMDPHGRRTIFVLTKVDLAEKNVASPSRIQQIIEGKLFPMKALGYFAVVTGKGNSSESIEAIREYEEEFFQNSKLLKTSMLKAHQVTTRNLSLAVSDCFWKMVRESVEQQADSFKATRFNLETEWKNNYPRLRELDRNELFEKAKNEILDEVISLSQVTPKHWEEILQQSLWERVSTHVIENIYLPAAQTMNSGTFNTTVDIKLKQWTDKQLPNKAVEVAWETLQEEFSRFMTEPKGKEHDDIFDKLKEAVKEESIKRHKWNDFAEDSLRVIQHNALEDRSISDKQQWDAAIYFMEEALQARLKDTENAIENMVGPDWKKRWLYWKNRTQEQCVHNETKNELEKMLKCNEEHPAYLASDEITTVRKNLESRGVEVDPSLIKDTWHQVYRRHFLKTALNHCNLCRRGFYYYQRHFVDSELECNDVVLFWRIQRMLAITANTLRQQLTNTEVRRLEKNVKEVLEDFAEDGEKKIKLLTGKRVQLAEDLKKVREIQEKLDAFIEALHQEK
Chain of PKA regulatory subunit RII (Homo sapiens) (P13861 2-404): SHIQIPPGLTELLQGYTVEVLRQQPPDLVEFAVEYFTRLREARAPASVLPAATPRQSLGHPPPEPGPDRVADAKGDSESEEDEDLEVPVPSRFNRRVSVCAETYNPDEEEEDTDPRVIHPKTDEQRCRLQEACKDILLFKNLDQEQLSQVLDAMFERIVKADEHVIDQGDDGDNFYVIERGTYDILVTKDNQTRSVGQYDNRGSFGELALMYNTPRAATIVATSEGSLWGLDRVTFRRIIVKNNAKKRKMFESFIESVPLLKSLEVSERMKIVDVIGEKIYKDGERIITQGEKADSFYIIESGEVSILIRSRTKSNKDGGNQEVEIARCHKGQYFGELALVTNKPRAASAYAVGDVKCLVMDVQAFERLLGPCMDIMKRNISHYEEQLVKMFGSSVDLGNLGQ

Substance: OPA1 (from UniProt O60313)
- Kd [1]: 14 nM
- Kd [2]: 12.5 nM
